Data published in patent US20110150771A1.

Columns and labels:
Assay in all cases: cell-based or functional assay
[1] = target: DEN2 E protein of chimeric WN/DEN2 virus, C6-1 seed (Dengue virus type 2, strain 16681 (in a West Nile NY99 backbone)) (UniProt P29990)
[2] = target: DEN2 E protein of chimeric WN/DEN2 virus, C6-1/V-2 seed (E-N203D) (Dengue virus type 2, strain 16681 (in a West Nile NY99 backbone)) (UniProt P29990)
[3] = target: DEN2 E protein of chimeric WN/DEN2 virus, V-10 seed (E-K122I/K mixed, E-S186F, E-N203D) (Dengue virus type 2, strain 16681 (in a West Nile NY99 backbone)) (UniProt P29990)
[4] = target: DEN2 E protein of chimeric WN/DEN2 virus, V-3 seed (E-N203D; NS2A-I49T and NS2A-F94L elsewhere in the virus) (Dengue virus type 2, strain 16681 (in a West Nile NY99 backbone)) (UniProt P29990)
[5] = target: E protein of wild type West Nile virus NY99 (West Nile virus, strain NY99) (UniProt Q9Q6P4); details: scale: greatest antibody dilution that decreased plaques by at least 50%

| Substance | PRNT50 Titer [1] | PRNT50 Titer [2] | PRNT50 Titer [3] | PRNT50 Titer [4] | PRNT50 Titer [5] |
| --- | --- | --- | --- | --- | --- |
| WNV E protein-specific monoclonal antibody (MAb3.67G) | < 1280 | < 1280 | < 1280 | < 1280 | > 41000 |
| DENV-2 E protein-specific monoclonal antibody (MAb3H5) | > 2560 | > 2560 | > 2560 | > 2560 | < 80 |
